Assay results: paper PMC3133606

Molecular target: protective antigen, full-length wild type, nicked (nPA) and assembled into oligomers (Bacillus anthracis)
Assay: electron microscopy

protective antigen, full-length wild type, nicked (nPA) and assembled into oligomers (natural protein)
fold less octamer with Δ47 LFN than with WT LFN: 10 fold
